These results are taken from the supplement of paper PMC10724198.

± gives the standard deviation of the averaged measurements.
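Also: PSI is a weighted mean of sequencing reads over stability bins, variants kept only with over 10 reads, mCherry proximal and sfGFP distal, peptide attached via GGGS linker.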

The test system of the series is Saccharomyces cerevisiae. The series can be described thus: protein stability index of tFT-peptide fusion (C-terminal peptide) (PSI (0-1 scale)); higher = more stable (slower turnover). The note with it: genetic background: wild type; temperature: 30 C. The protocol:
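Multiplexed protein stability (MPS) profiling in S. cerevisiae. Random 12-aa peptides (tFT-X12 library) are fused to the C-terminus of a sfGFP-mCherry tandem fluorescent timer, after mCherry and a GGGS linker. Cells are FACS-sorted into 8 mCherry/sfGFP bins and deep-sequenced. The protein stability index (PSI) is the read-weighted bin average, scaled from 0 (unstable) to 1 (stable). Only peptides with >10 reads are reported; cells were grown at 30 °C in SC-His with glucose.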
Sequence CYLKGSGSWISG displayed a protein stability index of 0.718 ± 0.031.

In turn, CYPPTRYILGYF displayed a protein stability index of 0.72 ± 0.06.

For the sequence DARALMGEGGSV, the protein stability index is 0.651 ± 0.016.

DARKTKNRKDTA registered a protein stability index of 0.699 ± 0.024.

For DARRAKPTRRNA, the protein stability index turned out to be 0.688 ± 0.059.

DAWSFHNGATGA returned a protein stability index of 0.676 ± 0.029.

On to DCCAHLRARRLT, for which the protein stability index stood at 0.539 ± 0.035.

DCFSLVLRFTPV displayed a protein stability index of 0.64 ± 0.034.

DCRATNTTWGLS: the protein stability index turned out to be 0.697 ± 0.18.

As to DCVFLPCPRFFL, the protein stability index came to 0.707 ± 0.03.

Sequence DDSHVLILKFNW showed a protein stability index of 0.691 ± 0.045.

Consider DERESLFPLCSG, for which the protein stability index turned out to be 0.725 ± 0.015.

Regarding DETIAALYTMTD, the protein stability index was 0.615 ± 0.014.

In the case of DEVGVGASSNVF, the protein stability index worked out at 0.619 ± 0.037.

As for DFCSVDLNLCIV, the protein stability index was found to be 0.61 ± 0.011.

Consider DFGVRLGGPRTL, for which the protein stability index came to 0.645 ± 0.017.

Turning to DGAVRRGVGGLG, the protein stability index was found to be 0.699 ± 0.031.

On to DGCVTVDIRRGV, for which the protein stability index amounted to 0.733 ± 0.016.

DGGTSGGGVPVP gave a protein stability index of 0.637 ± 0.054.

As to DGKLNTASIEKV, the protein stability index came to 0.684 ± 0.036.

Sequence DGQSAKEPVGFR gave a protein stability index of 0.681 ± 0.037.

Consider DGRGPVSPTSLR, for which the protein stability index worked out at 0.662 ± 0.036.

DGVAILPLVRIS: the protein stability index came to 0.63 ± 0.031.

With DGWKERDSGVVG, the protein stability index amounted to 0.701 ± 0.018.

Regarding DHLTGTPPSPTV, the protein stability index was found to be 0.72 ± 0.048.

With DIEFGLSTVVCH, the protein stability index came out at 0.5099 ± 0.0046.

DIYGYENNIIKN showed a protein stability index of 0.708 ± 0.013.

DKIYNRNSKRRI showed a protein stability index of 0.6418 ± 0.0055.

DKMLDIETNNKH came in with a protein stability index of 0.654 ± 0.033.

Regarding DKRPTLYSLSLS, the protein stability index is 0.621 ± 0.032.

In the case of DKSGVYYMYSFK, the protein stability index is 0.733 ± 0.059.

In turn, DLGSFVNSGWVT registered a protein stability index of 0.706 ± 0.044.

As to DLMLSVDLNIDG, the protein stability index is 0.699 ± 0.0084.

On to DLRGDYCAGARV, for which the protein stability index was 0.685 ± 0.028.

Consider DLRSQGWVALFH, for which the protein stability index was determined as 0.663 ± 0.04.

As for DLSCVPSVNLGM, the protein stability index stood at 0.682 ± 0.075.

DLYLETSCSIGG yielded a protein stability index of 0.6723 ± 0.0032.

Regarding DLYPSVWVSIGP, the protein stability index was determined as 0.721 ± 0.019.

In turn, DLYQRPPLPKFS gave a protein stability index of 0.688 ± 0.036.

As for DMSVVCDRVLFD, the protein stability index was 0.733 ± 0.034.

DNKDRFRMFRVG showed a protein stability index of 0.695 ± 0.095.

As to DNVVLVRQAAFI, the protein stability index came out at 0.618 ± 0.066.

As for DPCDVVQHPSAQ, the protein stability index turned out to be 0.657 ± 0.11.

DPPLPLSPLTHR had a protein stability index of 0.679 ± 0.05.

In the case of DPSQRRPDCCTY, the protein stability index came to 0.729 ± 0.039.

Take DPVGRSSHQFFL: the protein stability index came out at 0.633 ± 0.026.

The sequence DPWPPPRTRTRT returned a protein stability index of 0.682 ± 0.015.

In the case of DQEENKRTNGTR, the protein stability index is 0.7096 ± 0.0034.

Sequence DQIDGPCNSRTR registered a protein stability index of 0.674 ± 0.023.

DQIWHPATRIMC came in with a protein stability index of 0.638 ± 0.071.

Take DQSLHAWSLRCT: the protein stability index was 0.771 ± 0.011.

Sequence DRDRVLLRGYRH had a protein stability index of 0.57134 ± 0.00013.

DRGSSRFTIGPK registered a protein stability index of 0.676 ± 0.022.

Sequence DRHWLELVGLWS gave a protein stability index of 0.75 ± 0.049.

DRLGQYSLIQRG had a protein stability index of 0.687 ± 0.022.

Consider DRLSSPYTLFCY, for which the protein stability index was 0.571 ± 0.037.

With DRRKRMLLLEHP, the protein stability index worked out at 0.76 ± 0.054.

In turn, DRSQKINKKKKK yielded a protein stability index of 0.75 ± 0.017.

For DRSRATRSPHIN, the protein stability index was determined as 0.703 ± 0.023.

As for DRTQKIQNNKWM, the protein stability index came to 0.622 ± 0.014.

The sequence DSDIIDYKMEII returned a protein stability index of 0.722 ± 0.12.

Turning to DSGLVSRNLFLH, the protein stability index was determined as 0.645 ± 0.18.

Sequence DSGYRQWGGTGR registered a protein stability index of 0.714 ± 0.12.

The sequence DSILCVPCVYLY yielded a protein stability index of 0.629 ± 0.0084.
